For this experiment, the target named is T1, human amylin receptor (amylin 3(a) receptor: human calcitonin receptor with RAMP-3) (human, UniProt P30988 25-474; O60896 24-148).
T1 construct: whole, on cells; also called hAmylin-R; hAmylinR
T1 sequence (looked up) 1: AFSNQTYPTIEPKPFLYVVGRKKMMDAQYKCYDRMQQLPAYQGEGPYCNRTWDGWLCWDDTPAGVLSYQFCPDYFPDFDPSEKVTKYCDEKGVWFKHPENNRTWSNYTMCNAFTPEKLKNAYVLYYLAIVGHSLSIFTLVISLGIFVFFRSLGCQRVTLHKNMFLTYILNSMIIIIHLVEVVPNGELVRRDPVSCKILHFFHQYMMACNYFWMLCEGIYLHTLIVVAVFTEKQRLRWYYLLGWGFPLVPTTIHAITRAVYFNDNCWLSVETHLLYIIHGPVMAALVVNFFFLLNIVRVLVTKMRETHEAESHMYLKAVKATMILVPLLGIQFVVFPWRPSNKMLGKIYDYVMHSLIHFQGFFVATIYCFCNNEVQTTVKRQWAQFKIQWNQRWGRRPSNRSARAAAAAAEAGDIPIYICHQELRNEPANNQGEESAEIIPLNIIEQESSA
T1 sequence (looked up) 2: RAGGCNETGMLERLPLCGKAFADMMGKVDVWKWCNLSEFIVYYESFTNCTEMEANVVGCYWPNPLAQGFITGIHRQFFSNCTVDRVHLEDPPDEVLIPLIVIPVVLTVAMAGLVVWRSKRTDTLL
Kind of experiment: SPA displacement of 125I-rat amylin, hAmylin 3(a) receptor membranes. In outline:
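Cell membranes were prepared by homogenisation in Na-HEPES/EDTA buffer, pH 7.4, and stored at −80° C. They were then coupled to SPA beads at 35 ng/μL final and exposed to compounds in assay buffer containing CaCl2, MgCl₂, OA and Tween20. After 120 min at 25° C, plates were counted and IC₅₀ derived.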
(In general: In a radioligand displacement assay an active substance lowers the binding of a labelled ligand.)

Numbered stars: 1 amine (or outer) side, 2 acyl side, 3 side chain; on linkers, the order of the positions; unused ones are H or OH. Bridge positions count the residues as written; N and C are the ends. Side chains are listed from the residue outwards. Ends that are not written are not given here. * marks the point of attachment. C20 diacid = O=C(O)CCCCCCCCCCCCCCCCCCC(=O)*; γGlu = O=C(O)[C@H](CCC(=O)[*:2])N[*:1]; AEEA = NCCOCCOCC(=O)O

B1: N^ε1-[2-[2-[2-[[(4S)-4-carboxy-4-(19-carboxynonadecanoylamino)butanoyl]amino]ethoxy]ethoxy]acetyl]-[Arg17,Pro21,Pro27,Arg34]-h-amylin (peptide)
peptide: K([AEEA-γGlu-C20 diacid])CNTATCATQRLANFLRHSSPNFGAIPSSTNVGRNTY-NH2
modifications: disulfide 2-7; N-terminus assumed
SMILES: CC[C@H](C)[C@H](NC(=O)[C@H](C)NC(=O)CNC(=O)[C@H](Cc1ccccc1)NC(=O)[C@H](CC(N)=O)NC(=O)[C@@H]1CCCN1C(=O)[C@H](CO)NC(=O)[C@H](CO)NC(=O)[C@H](Cc1c[nH]cn1)NC(=O)[C@H](CCCNC(=N)N)NC(=O)[C@H](CC(C)C)NC(=O)[C@H](Cc1ccccc1)NC(=O)[C@H](CC(N)=O)NC(=O)[C@H](C)NC(=O)[C@H](CC(C)C)NC(=O)[C@H](CCCNC(=N)N)NC(=O)[C@H](CCC(N)=O)NC(=O)[C@@H](NC(=O)[C@H](C)NC(=O)[C@@H]1CSSC[C@H](NC(=O)[C@@H](N)CCCCNC(=O)COCCOCCNC(=O)CC[C@H](NC(=O)CCCCCCCCCCCCCCCCCCC(=O)O)C(=O)O)C(=O)N[C@@H](CC(N)=O)C(=O)N[C@@H]([C@@H](C)O)C(=O)N[C@@H](C)C(=O)N[C@@H]([C@@H](C)O)C(=O)N1)[C@@H](C)O)C(=O)N1CCC[C@H]1C(=O)N[C@@H](CO)C(=O)N[C@@H](CO)C(=O)N[C@H](C(=O)N[C@@H](CC(N)=O)C(=O)N[C@H](C(=O)NCC(=O)N[C@@H](CCCNC(=N)N)C(=O)N[C@@H](CC(N)=O)C(=O)N[C@H](C(=O)N[C@@H](Cc1ccc(O)cc1)C(N)=O)[C@@H](C)O)C(C)C)[C@@H](C)O
notes: also called 78; compound 78
By IC50 is commonly meant the point on the concentration scale where inhibition reaches its midpoint. For the molecule B1, the IC50 came to 0.602 nM.

Take K([AEEA-γGlu-C20 diacid])CNTATCATQRLANFLRHSSPNFGAIPPSTPVGSNTY-NH2 (disulfide 2-7, also called 53; compound 53): the IC50 was determined as 0.052 nM.

B2: N^ε1-[2-[2-[2-[[(4S)-4-carboxy-4-(19-carboxynonadecanoylamino)butanoyl]amino]ethoxy]ethoxy]acetyl]-[Arg17,Pro21,Pro27,Glu35]-h-amylin (peptide)
peptide: K([AEEA-γGlu-C20 diacid])CNTATCATQRLANFLRHSSPNFGAIPSSTNVGSETY-NH2
modifications: disulfide 2-7; N-terminus assumed
SMILES: CC[C@H](C)[C@H](NC(=O)[C@H](C)NC(=O)CNC(=O)[C@H](Cc1ccccc1)NC(=O)[C@H](CC(N)=O)NC(=O)[C@@H]1CCCN1C(=O)[C@H](CO)NC(=O)[C@H](CO)NC(=O)[C@H](Cc1c[nH]cn1)NC(=O)[C@H](CCCNC(=N)N)NC(=O)[C@H](CC(C)C)NC(=O)[C@H](Cc1ccccc1)NC(=O)[C@H](CC(N)=O)NC(=O)[C@H](C)NC(=O)[C@H](CC(C)C)NC(=O)[C@H](CCCNC(=N)N)NC(=O)[C@H](CCC(N)=O)NC(=O)[C@@H](NC(=O)[C@H](C)NC(=O)[C@@H]1CSSC[C@H](NC(=O)[C@@H](N)CCCCNC(=O)COCCOCCNC(=O)CC[C@H](NC(=O)CCCCCCCCCCCCCCCCCCC(=O)O)C(=O)O)C(=O)N[C@@H](CC(N)=O)C(=O)N[C@@H]([C@@H](C)O)C(=O)N[C@@H](C)C(=O)N[C@@H]([C@@H](C)O)C(=O)N1)[C@@H](C)O)C(=O)N1CCC[C@H]1C(=O)N[C@@H](CO)C(=O)N[C@@H](CO)C(=O)N[C@H](C(=O)N[C@@H](CC(N)=O)C(=O)N[C@H](C(=O)NCC(=O)N[C@@H](CO)C(=O)N[C@@H](CCC(=O)O)C(=O)N[C@H](C(=O)N[C@@H](Cc1ccc(O)cc1)C(N)=O)[C@@H](C)O)C(C)C)[C@@H](C)O
notes: also called 26; compound 26
Consider B2, for which the IC50 was 0.532 nM.

B3: N^ε1-[2-[2-[2-[[(4S)-4-carboxy-4-(19-carboxynonadecanoylamino)butanoyl]amino]ethoxy]ethoxy]acetyl]-[Arg17,Pro21,Pro27,Arg35]-h-amylin (peptide)
peptide: K([AEEA-γGlu-C20 diacid])CNTATCATQRLANFLRHSSPNFGAIPSSTNVGSRTY-NH2
modifications: disulfide 2-7; N-terminus assumed
SMILES: CC[C@H](C)[C@H](NC(=O)[C@H](C)NC(=O)CNC(=O)[C@H](Cc1ccccc1)NC(=O)[C@H](CC(N)=O)NC(=O)[C@@H]1CCCN1C(=O)[C@H](CO)NC(=O)[C@H](CO)NC(=O)[C@H](Cc1c[nH]cn1)NC(=O)[C@H](CCCNC(=N)N)NC(=O)[C@H](CC(C)C)NC(=O)[C@H](Cc1ccccc1)NC(=O)[C@H](CC(N)=O)NC(=O)[C@H](C)NC(=O)[C@H](CC(C)C)NC(=O)[C@H](CCCNC(=N)N)NC(=O)[C@H](CCC(N)=O)NC(=O)[C@@H](NC(=O)[C@H](C)NC(=O)[C@@H]1CSSC[C@H](NC(=O)[C@@H](N)CCCCNC(=O)COCCOCCNC(=O)CC[C@H](NC(=O)CCCCCCCCCCCCCCCCCCC(=O)O)C(=O)O)C(=O)N[C@@H](CC(N)=O)C(=O)N[C@@H]([C@@H](C)O)C(=O)N[C@@H](C)C(=O)N[C@@H]([C@@H](C)O)C(=O)N1)[C@@H](C)O)C(=O)N1CCC[C@H]1C(=O)N[C@@H](CO)C(=O)N[C@@H](CO)C(=O)N[C@H](C(=O)N[C@@H](CC(N)=O)C(=O)N[C@H](C(=O)NCC(=O)N[C@@H](CO)C(=O)N[C@@H](CCCNC(=N)N)C(=O)N[C@H](C(=O)N[C@@H](Cc1ccc(O)cc1)C(N)=O)[C@@H](C)O)C(C)C)[C@@H](C)O
notes: also called 38; compound 38
Turning to B3, the IC50 turned out to be 0.249 nM.

B4: N^ε1-[2-[2-[2-[[(4S)-4-carboxy-4-(19-carboxynonadecanoylamino)butanoyl]amino]ethoxy]ethoxy]acetyl]-[Arg17,Pro21,Pro27,His34]-h-amylin (peptide)
peptide: K([AEEA-γGlu-C20 diacid])CNTATCATQRLANFLRHSSPNFGAIPSSTNVGHNTY-NH2
modifications: disulfide 2-7; N-terminus assumed
SMILES: CC[C@H](C)[C@H](NC(=O)[C@H](C)NC(=O)CNC(=O)[C@H](Cc1ccccc1)NC(=O)[C@H](CC(N)=O)NC(=O)[C@@H]1CCCN1C(=O)[C@H](CO)NC(=O)[C@H](CO)NC(=O)[C@H](Cc1c[nH]cn1)NC(=O)[C@H](CCCNC(=N)N)NC(=O)[C@H](CC(C)C)NC(=O)[C@H](Cc1ccccc1)NC(=O)[C@H](CC(N)=O)NC(=O)[C@H](C)NC(=O)[C@H](CC(C)C)NC(=O)[C@H](CCCNC(=N)N)NC(=O)[C@H](CCC(N)=O)NC(=O)[C@@H](NC(=O)[C@H](C)NC(=O)[C@@H]1CSSC[C@H](NC(=O)[C@@H](N)CCCCNC(=O)COCCOCCNC(=O)CC[C@H](NC(=O)CCCCCCCCCCCCCCCCCCC(=O)O)C(=O)O)C(=O)N[C@@H](CC(N)=O)C(=O)N[C@@H]([C@@H](C)O)C(=O)N[C@@H](C)C(=O)N[C@@H]([C@@H](C)O)C(=O)N1)[C@@H](C)O)C(=O)N1CCC[C@H]1C(=O)N[C@@H](CO)C(=O)N[C@@H](CO)C(=O)N[C@H](C(=O)N[C@@H](CC(N)=O)C(=O)N[C@H](C(=O)NCC(=O)N[C@@H](Cc1c[nH]cn1)C(=O)N[C@@H](CC(N)=O)C(=O)N[C@H](C(=O)N[C@@H](Cc1ccc(O)cc1)C(N)=O)[C@@H](C)O)C(C)C)[C@@H](C)O
notes: also called 76; compound 76
Consider B4, for which the IC50 came to 0.215 nM.

B5: N^ε1-[2-[2-[2-[[(4S)-4-carboxy-4-(19-carboxynonadecanoylamino)butanoyl]amino]ethoxy]ethoxy]acetyl]-[Arg17,Pro21,Pro27,Pro29,Pro31]-h-amylin (peptide)
peptide: K([AEEA-γGlu-C20 diacid])CNTATCATQRLANFLRHSSPNFGAIPSPTPVGSNTY-NH2
modifications: disulfide 2-7; N-terminus assumed
SMILES: CC[C@H](C)[C@H](NC(=O)[C@H](C)NC(=O)CNC(=O)[C@H](Cc1ccccc1)NC(=O)[C@H](CC(N)=O)NC(=O)[C@@H]1CCCN1C(=O)[C@H](CO)NC(=O)[C@H](CO)NC(=O)[C@H](Cc1c[nH]cn1)NC(=O)[C@H](CCCNC(=N)N)NC(=O)[C@H](CC(C)C)NC(=O)[C@H](Cc1ccccc1)NC(=O)[C@H](CC(N)=O)NC(=O)[C@H](C)NC(=O)[C@H](CC(C)C)NC(=O)[C@H](CCCNC(=N)N)NC(=O)[C@H](CCC(N)=O)NC(=O)[C@@H](NC(=O)[C@H](C)NC(=O)[C@@H]1CSSC[C@H](NC(=O)[C@@H](N)CCCCNC(=O)COCCOCCNC(=O)CC[C@H](NC(=O)CCCCCCCCCCCCCCCCCCC(=O)O)C(=O)O)C(=O)N[C@@H](CC(N)=O)C(=O)N[C@@H]([C@@H](C)O)C(=O)N[C@@H](C)C(=O)N[C@@H]([C@@H](C)O)C(=O)N1)[C@@H](C)O)C(=O)N1CCC[C@H]1C(=O)N[C@@H](CO)C(=O)N1CCC[C@H]1C(=O)N[C@H](C(=O)N1CCC[C@H]1C(=O)N[C@H](C(=O)NCC(=O)N[C@@H](CO)C(=O)N[C@@H](CC(N)=O)C(=O)N[C@H](C(=O)N[C@@H](Cc1ccc(O)cc1)C(N)=O)[C@@H](C)O)C(C)C)[C@@H](C)O
notes: also called 54; compound 54
As to B5, the IC50 was 0.03 nM.

B6: N^ε1-[2-[2-[2-[[(4S)-4-carboxy-4-(19-carboxynonadecanoylamino)butanoyl]amino]ethoxy]ethoxy]acetyl]-[Arg17,Pro21,Pro27,Pro28,Pro34]-h-amylin (peptide)
peptide: K([AEEA-γGlu-C20 diacid])CNTATCATQRLANFLRHSSPNFGAIPPSTNVGPNTY-NH2
modifications: disulfide 2-7; N-terminus assumed
SMILES: CC[C@H](C)[C@H](NC(=O)[C@H](C)NC(=O)CNC(=O)[C@H](Cc1ccccc1)NC(=O)[C@H](CC(N)=O)NC(=O)[C@@H]1CCCN1C(=O)[C@H](CO)NC(=O)[C@H](CO)NC(=O)[C@H](Cc1c[nH]cn1)NC(=O)[C@H](CCCNC(=N)N)NC(=O)[C@H](CC(C)C)NC(=O)[C@H](Cc1ccccc1)NC(=O)[C@H](CC(N)=O)NC(=O)[C@H](C)NC(=O)[C@H](CC(C)C)NC(=O)[C@H](CCCNC(=N)N)NC(=O)[C@H](CCC(N)=O)NC(=O)[C@@H](NC(=O)[C@H](C)NC(=O)[C@@H]1CSSC[C@H](NC(=O)[C@@H](N)CCCCNC(=O)COCCOCCNC(=O)CC[C@H](NC(=O)CCCCCCCCCCCCCCCCCCC(=O)O)C(=O)O)C(=O)N[C@@H](CC(N)=O)C(=O)N[C@@H]([C@@H](C)O)C(=O)N[C@@H](C)C(=O)N[C@@H]([C@@H](C)O)C(=O)N1)[C@@H](C)O)C(=O)N1CCC[C@H]1C(=O)N1CCC[C@H]1C(=O)N[C@@H](CO)C(=O)N[C@H](C(=O)N[C@@H](CC(N)=O)C(=O)N[C@H](C(=O)NCC(=O)N1CCC[C@H]1C(=O)N[C@@H](CC(N)=O)C(=O)N[C@H](C(=O)N[C@@H](Cc1ccc(O)cc1)C(N)=O)[C@@H](C)O)C(C)C)[C@@H](C)O
notes: also called 55; compound 55
For B6, the IC50 is 0.042 nM.
